The values below are quoted from earlier work in article PMC6787260.

Data set [1] deals with PDK1 (Homo sapiens) (UniProt O15530). Kind of data set: time resolved-FRET.
The target is the same in data set [2]. Kind of data set: time resolved-FRET. The source holds these as a separate data set.

Read-outs that look alike come from different tables or passages of the source.

The term Kd denotes the equilibrium constant for the complex coming apart. On to PDK1 (from UniProt O15530), for which the Kd is 49 µM with PDK1 (Homo sapiens) [1] and 11 µM with PDK1 (Homo sapiens) [2].
